B1: NFE2L1 (parent)
chain: TLDGYGIHPKSIDLDNYFTARRLL
B2: ADAMTS4 (parent)
chain: HVDPEEPWSPCSARFITDFLDNGY

Variants of: B1
Experiment: protein stability index of a GFP-peptide fusion (GPS, HEK-293T) (PSI 1-6); higher = more stable
Details: c terminus: a fixed tail appended
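Note: lentivirally expressed fusions sorted by FACS into six bins by GFP to DsRed ratio, PSI derived from sequencing read proportions per bin multiplied by bin number.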

Point of comparison: R21M, protein stability index 1.86. Against it:
- L14P — higher, 2.31
- L14V — lower, 1.71
- L14T — higher, 2.55
- Y17W — lower, 1.5
- Y17S — higher, 2.55
- Y17M — higher, 2.36
- Y17I — higher, 2.25
- Y17F — higher, 3.17
- Y17N — higher, 2.59
- Y5M — higher, 2.5
- Y5F — higher, 1.89
- Y5D — higher, 2.8
- Y5K — lower, 1.85
- Y5T — higher, 2.13
- Y5C — higher, 2.01
- Y5H — higher, 2.12
- Y5V — higher, 2.42
- L24P — higher, 2.56
- L24K — higher, 2.9
- G6T — lower, 1.83
- G6V — higher, 2.25
- G6N — higher, 2.21
- G6R — higher, 1.87
- G6P — lower, 1.76
- G6M — lower, 1.83
- D3F — higher, 3.12
- D3M — higher, 2.07
- D3H — lower, 1.25
- D3V — lower, 1.62
- N16A — lower, 1.72
- N16K — lower, 1.39
- N16M — higher, 1.87
- N16S — higher, 2.6
- I12G — higher, 2.43
- I12C — higher, 2.18
- I12R — higher, 1.93
- I12W — higher, 2.05
- I12E — higher, 2.99
- L2I — higher, 2.61
- L2C — higher, 2.75
- L2P — higher, 2.68
- L2D — higher, 2.15
- L2W — higher, 2.37
- L2H — higher, 1.92
- R22E — higher, 1.88
- R22K — higher, 2.2
- R22D — higher, 2.05
- R22F — lower, 1.6
- R22N — lower, 1.85
- R22H — higher, 2.2
- R22S — lower, 1.69
- G4P — lower, 1.63
- G4T — lower, 1.55
- G4I — lower, 1.65
- P9L — higher, 2.7
- P9C — lower, 1.62
- P9R — higher, 2.22
- P9W — higher, 2.16
- P9V — lower, 1.5
- P9G — higher, 1.91
- P9S — lower, 1.71
- L23A — higher, 2.62
- L23N — higher, 2.32
- L23T — higher, 2.17
- L23Y — higher, 2.33
- S11Y — lower, 1.67
- S11L — higher, 2
- S11T — higher, 1.97
- S11W — lower, 1.67
- T1N — lower, 1.61
- T1L — lower, 1.57
- T1S — lower, 1.82
- T1G — lower, 1.46
- T1F — lower, 1.3
- T1K — lower, 1.52
- H8Q — lower, 1.79
- H8E — higher, 2.42
- H8R — lower, 1.55
- H8Y — lower, 1.72
- F18K — higher, 2.88
- F18Q — higher, 2.69
- F18A — higher, 2.93
- F18T — higher, 2.25
- F18P — higher, 2.89
- A20I — lower, 1.77
- A20N — lower, 1.49
- D13Q — higher, 2.01
- D13M — lower, 1.64
- D13I — higher, 2.77
- D13Y — lower, 1.46
- D13W — higher, 2.21
- D15C — lower, 1.48
- D15K — lower, 1.72
- D15R — higher, 2.74
- D15I — higher, 2.47
- I7P — higher, 2.12
- I7T — lower, 1.78
- I7Q — higher, 2.35
- I7E — higher, 2.27
- I7W — lower, 1.67
- T19A — higher, 2.01
- T19I — higher, 2.03
- T19C — lower, 1.69
- R21C — lower, 1.7
- K10G — higher, 1.93
- K10T — higher, 1.94
- K10N — higher, 2.44
- K10R — higher, 2.11
- K10S — higher, 2.22
- K10Q — higher, 2.12

Variants of: B2
Experiment: as above
Details: c terminus: a fixed tail appended

Point of comparison: P7I, protein stability index 1.61. Against it:
- C11T — higher, 2.15
- C11F — higher, 2.1
- C11W — higher, 1.86
- P10R — higher, 1.83
- P10M — higher, 2.14
- P10A — higher, 1.75
- P10W — higher, 2.08
- P10C — lower, 1.5
- P10E — higher, 2.48
- N22E — higher, 2.19
- N22D — higher, 1.88
- N22M — higher, 1.92
- W8F — higher, 2.29
- W8I — higher, 3.34
- W8E — higher, 3.92
- W8H — higher, 3.44
- W8D — higher, 3.66
- P4W — higher, 1.69
- P4I — higher, 1.77
- E5W — higher, 2.79
- E5N — higher, 1.96
- E5P — higher, 2.29
- F19V — higher, 1.78
- F15T — higher, 1.64
- F15G — higher, 2.71
- I16E — higher, 2.33
- I16S — higher, 1.98
- I16F — higher, 1.63
- L20C — lower, 1.52
- A13T — higher, 1.79
- A13I — higher, 2.19
- Y24F — higher, 2.17
- Y24I — higher, 2.05
- D21I — higher, 2.69
- D21Q — higher, 2.21
- P7T — higher, 1.9
- P7C — higher, 2.11
- P7R — higher, 2.14
- R14Y — higher, 1.71
- R14I — higher, 2.28
- G23C — higher, 2.17
- G23M — higher, 1.69
- H1I — higher, 2.1
- H1L — higher, 1.78
- H1V — higher, 2.04
- D18T — higher, 1.65
- V2K — higher, 2.62
- V2G — higher, 2.9
- E6R — higher, 2.44
- E6K — higher, 1.64
- D3M — higher, 1.89
- D3F — higher, 1.79
- T17F — lower, 1.41
- S12E — higher, 1.88
- S12K — lower, 1.55
